Laboratory results as given in the nanobody polyreactivity screen of Harvey et al. (2022).

experiment: yeast display, Sf9 membrane polyspecificity reagent, FACS + sequencing; frameworks hold sequencing errors
Summary of the method: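 Polyreactivity labels are assigned by the sorting gate from which each nanobody was recovered. The gates were low and high (top ~1%), set on anti-HA fluorescence for expression and streptavidin fluorescence for reagent binding. Before sorting, galactose-induced (36–48 hours) yeast display cells were stained for 1 hour at 4 °C with 10% biotinylated, detergent-solubilized Sf9 membrane reagent.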

| Sequence | polyreactivity (PSR sort gate) |
| --- | --- |
| QVQLEESGGGLVQAGGSLRLSCAASGSIFQQYAMGWYRQAPGKERELVAAISYSGGTTYYADSVKGRFTISRDNAKNTVYLQMNSLKPEDTAVDYCAAYYPSGSYDYYWGQGTQVTVSS | low polyreactivity |
| QVQLVESGGGLVQAGGSLRLSCSASGSIFGVYTMGWFRQAPGKERELVAAITSAGSTYADSVKGRFTISRDNAKNTVYLQMNSLKPEDTAVYYCNAESVLLSVLVELREPHEYWGQGTQVTVSS | low polyreactivity |
| QVQLVESAAGLVQAGGSLRLSCAASGIIFSKYAMGWYRQAPGKERELVAASSSSGGSTYYADSVKGRFTISRDNAKNTVYLQMNSLKPEDTAVYYCAKGGGPNSRGYWGQGTQVTVSS | high polyreactivity |
| QVQLVESGGGLVQAGGSLRLSCAASGSTFYGYGMGWYRQAPGKERELVAAITGSGDTTYYADSVKGRFTISRDNAKNTVYLQMNSLKPEDTAVYYCNARWLAEYDYWGQGTQVTVSS | low polyreactivity |
| QVQLVESGGGIVQAGGSLRLSCAASGFIFNTNAMGWYRQAPGKERELVAGISRSGVRTYYADSVKGRFTISRDNAKNTVYLQMNSLKPEDTAVYYCAATSLPRYYYWGQGTQVTVSS | low polyreactivity |
| QVQLVESGGGLVQAGGSLRLSCGASGNTFYPNAMGWYRQAPGKERELVAAITTSGVTTYYADSVKGSFTISRDNAKNTVYLQINSLKPEDTAVYYCAAYWSRDKYYYWGQGTQVTVSS | low polyreactivity |
| QVQLVESGGGLVQAGGSLRLSCAASGSILKFNAMGWYRQAPGKERELVAAITRGTNTYYADSVKGRFTISRDNAKNTVYLQMNSLKPEDSAVYYCAARQPYNAFGYFYWGQGTQVTVSS | low polyreactivity |
| QVQLVESGGGLVQAGGSLRLSCAASGSTFPRYAMGWYRQAPGKARELVAAINSSGSSTYYADSVKGRFTISRDNAKNTVYLQMNSLKPEDTAVYYCAAKARYRDYYYWGQGTQVTVSS | high polyreactivity |
| QVQLVESGGGLVQAGGSLRLSCAASGITFRFNAMGWYRQAPGKEREFVAAITYSGDSTYYADSVKGRFTISRDNAKNTVYLQMNSLKPEDTAVYYCAADASSKLYDYWGQGTQVTVSS | low polyreactivity |
| QVQLVESGGGLVQAGGSLRLSCAASGIIFSYYAMGWYRQAPGKERELVAAISRSGARTSYADSVKGRFTISRDNAKNTVYLQMNSLKPEDTAVYYCAARTQGTRYRGEYWGQGTQVTVSS | high polyreactivity |
| QVQLVESGGGLVQAGGSLRLSCAASGRTFGRYVMGWYRQAPGKERELVAAISKGGTSPYYADSVKGRFTISRDNAKNTVYLQMNSLKPEDTAVYYCAAGSFARYTYVPRYDYWGQGTQVTVSS | high polyreactivity |
| QVQLVESGGGLVQAGGSLRLRCAASGRTFGQNAMGLYRQAPGKEREFVAAISSSGGSTYYADSVKGRFTISRDNAKNTVYLQMNSLKPEDTAVYYCNARQYYYRSGAYASRYLYNYWGQGTQVTVSS | high polyreactivity |
| QVQLVESGGGLVQAGGSLRLSCAASGRIFIVNAMGWYRQAPGKERELVAAISYRGGSTYYADSVKGRFTISRDNAKNTVYLQMNSLKPEDTAVYYCNKDSTGDGYDYWGQGTQVTVSS | low polyreactivity |
| QVQLVESGGGLVQAGGSLRISCAASGRIFYYYDMGWYRQAPGKERELVAAISRSGGRTYYADSVKGRFTISRDNANNTVYLHMNSLKPEDTAVYYCNVVRQGGTLGYDYWGQGTQVTVSS | high polyreactivity |
| QVQLVESGGGLVQAGGSLRLSCAASGRILASNVMGWYRQAPGKEREFVASITYSGSSTYYADSVKGRFTISRDNAKNTVYLQMNSLKPEDTAVYYCATRYGYSDGDYWGQGTQVTVSS | low polyreactivity |
| QVQLVESGGGLVQAGGSLRLSCAASGLIFVSNAMGWYRQAPGKERELVAAISWSGSRTYYADSVKGRFTISRDNAKNTVYLQMNSLKPEDTAVYYCNAVRRGLPVVGAYDYWGQGTQVTVSS | high polyreactivity |
| QVQLVESGGGLVQAGGSLRLSCAASGSTFPPNAMGWYRQSPGKERELVAVISYSDGSTYYADSVKGRFTISRDNAKNTVYLQMNSLKPEDTAVYYCAAYCGYGGVSMYYWGQGTQVTVSS | low polyreactivity |
| QVQLVESGGGLVQAGGSLRLSCAASGRIFSINVMGWYRHAPGKERELVAAISKRGGSTYYADSVKGRFTISRDNAKNTVYLQMNSLKPEDTAVYYCAARRHYTYGNGPSRGGQMDYWGQGTQVTVSS | high polyreactivity |
| QVQLVESGGGLVQAGVSLRLSCAATGFPLQVYDMGWYRQAPGKEMELVADISGSGDSTNYADSVKGRFTISRDNAKNSVYLQMNSLKPEDTAVYYCAAEVRGGYYGYDYWGQGTQVTVSS | low polyreactivity |
| HVQLVESGGGLVQAGGSQRLSCAPSGSTFYYNAMGSYRQAPGKERELVAAISKTGGSTYYADSVKGRFTISRDYAKNTVYLQMNSLKPVDTAVYYCAAVGSRGAWARRGYWGQGTHVTVSS | high polyreactivity |
| QVQLVESGGGLVQAGGSLRLSCAASGSTFATYTMGWYRQAPGKERELVAAITRGSNTYYADSVKGRFTISRDNAKNTVDLQMNSLKPEHTAVYYCAAGYSGYRKYNSWGQGTQVTVSS | high polyreactivity |
| QVQLVESGGGLVQAGGSLRLSCAASGRTFYQYAMGWYRQAPGKERELVAAISWSDGSTSYADSVKGRFTISRDNAKNTVYLQMNSLKQEDTAVYYCAKDWTGTKAIEYDYWGQGTQVTVSS | low polyreactivity |

| Sequence | polyreactivity (PSR sort gate) |
| --- | --- |
| QVQLVESGGGLVQAGGSLRLSCAASGYTFNKNTMGWYRQAPGKERELVAAISSSGGRTYYADSVKGRFTISRDNAKNTVYLQMNSLKPEDTAVYYCAARGYFKIHEYDYWGQGTQVTVSS | high polyreactivity |
| QVQLVESGGGLVQAGGSLRLSCAASGITFEVYAMGWYRQAPGKERELVAVITSVGSTNYADSVKGRFTISRDNAKNTVYLQMNSLKPEDTAVYYCASEKWTVRRFNPYTYYRYDYWGQGTQVTVSS | low polyreactivity |
| QVQLVESGGGLVQAGGSLRLSCAASGRIFPFYVMGWDRQAPGKERELVATINWSGGSTYYADSVKGRFTISRDNAKNTLYLQMNSLKPEDTAVYYCNAAPSDDYDYWGQGTQVTVSS | low polyreactivity |
| QDQLVESGRGLVQAGGSLRLSCAASGFIFYQNAMGWYRQAPGKERELVAAISWRSGRTYYADSVKGRFTISRDNAKNTVYLQMNSLKPEDTAVYYCNAVRYPSYSPEYGSWGQGTEVTVSS | high polyreactivity |
| QVQLVESGGGLVQAGGSLRLSCAASGSTLTYYVMGWSRQAPGKERELVAAITDSGGGTYYADSVKGRFTISRDNAKNTVYLQMNSLKPEDTAVYYCNAYYPYGLASFYYWGQGTQVTVSS | low polyreactivity |
| QVQLVESGGCLVQARGSLRLSCASSGRMISYNAMGWYRQRPGKDMELGAAINSSGGSTYDADSVKGRFTISRDNAKNTVSLQMNSLKAEDTAFYYCNVLHIPSTTMDYWPQGTQVTVSS | high polyreactivity |
| QVQLVESGGGLVQAGGSLRLSCAASGSIFVYNDMGWYRQAPGKERELVAGIDWSGDRTYADSVKGRFTSSRDNAKNTVYLHMNSLKPEDTAVYYCNADEWRWDEIIPYAVDYWGQGTQVTVSS | low polyreactivity |
| QVQLVESGVGLVQAGGRLRLSCAASGLTLHRYTMGWYRQAPGKERELVAVITYGGGNTYYADSVKGRFTISRDNAKNTVYLQLNCLKPEDTAVYYCAARDPPFYWYDYWGQGTQVTVSS | low polyreactivity |
| QVQLVESGGGLVQAGGSLRLSCPASGSIVGYYVMGWYRQAPGKERELVAAISWSSGSTYYADSVKGRFTISRDNAKNTVYLQKNSLKPEDTAVYYCNASNVYFWFVTLEFDYWGQGTQVTVSS | low polyreactivity |
| QVQLVESGGGLVQAGGSLRLSCAASGSIFFGYAMGWYRQAPGKERELVATITSSGGITYYADSVKGRFTISRDNAKNTVYLQMNSLKPEDTAVYYCATYYYYTYDYWGQGTQVTVSS | low polyreactivity |
| QVQLVESGGGLVQAGGSLRLSCAASGRTFHIYAMGWYRQAPGKERELVAAIRGRSGSTYYADSVKGRFTISRDNAKNTVYLQLNSLKPEDTAVYYCAVGRYPYGSARYRFDYWGQGTQVTVSS | high polyreactivity |
| QVQLVESGGGLVQAVGSLRLSCAASGLIFERYAMGSYIQAPGKEREFVAAISKRGGSTYYADSVKGRFTISRDNAKNTVYLQMNSLKPEDTAVYDCAVQPNYYGMGYCGQGTQVTVSS | high polyreactivity |
| QVQLEESGVGLVQAGGSLRLSCADSGFSFRTNAMGWYRQAPGKERELVAAISRSSGSTYYADSVKGRFTISRDNSKNTVYLQMNSMKPEETAVYYCNAVRYYSRGYTRYDYWGQGSQVTVSS | high polyreactivity |
| QVQLVESGGGLVQAGGSLRLSCAASGSTFVYNAMGWYRQAPGKERELVAAITVIGGRTYYADSVKGRFTISRDNAKNTVYLQMNSLKPEDTAVYYCNADATESIGYYDEYEYWGQGTQVTVSS | low polyreactivity |
| QVQLVESGGGLVQAGGSLRLSCAASGGTFFAYAMGWYRQAPGERELVAAISWSGDSTYYADSVKGRFTISRDNAKNTVYLQMNSLKPEDTAVYYCAADYGFEYYYWGQGTQVTVSS | high polyreactivity |
| QVQLVESGGGLVQAGGSLRLSCAASGRTFASYDMGWYRQAPGKEREVVAVIRSGGSTKYADSVKGRFTISRDNAKNTVYLQMNSLKPEDTAVYYCARTYAKTYLSVYLFYYWGQGTQVTVSS | low polyreactivity |
| QVQLVESGGGLVQAGGSLRLSCAASGRIFSYYAMGWYRQAPGKERELVASISRGSSTYYADSVKGRFTISRDNAKNTVYLQMNSLKPEDTAVYYCARQWLGYPYTTYTGSPVEGYGYWGQGTQVTVSS | high polyreactivity |
| QVQLVESGGGLVQAGGSLRLSCAASGRIFGPYAMGWYRQAPGKERELVAAISWSGGSTYYADSVKGRFTISRDNAKNTVYLQMNSLKPEDTAVYYCAARERRVYGDRFYKLDYWGQGTQVTVSS | high polyreactivity |
| QVQLVESGGGLVQAGGSLRLSCAASGRIFWAYAMGWYRQAPGKERELVAAINGSGGSTNYADSVKGRFTISRDNAKNTVYLQMNSLIPEDTAVYYCAADWSLRLYDYWGQGTQVTVSS | low polyreactivity |
| QVQLVESGGGLVQAGGSLRLSCAASGFTYKYYAMGWYRQAPGKERELVAAISGSGGRTYYADSVKGRFTISRDNAKNTVYLQMNSLKPEDTAVYYCAAVYLVTRGARYDYWGQGTQVTVSS | high polyreactivity |
| QVQLVESGGGLVQAGGSLRLSCAASGFIFGYYTMGWYRQAPGKERELVAAISSRGGSTYYADSVKGRFTISRDNAKNTVYLQMNSLKPEDTAVYYCAKRSTYTGSWWERGYWGQGTQVTVSS | high polyreactivity |
